Data on 2 molecules can be found in patent US20250075006A1 (SHANDONG SIMCERE BIOPHARMACEUTICAL, published 2025).

One may read the EC50 (read off the curve) as the concentration at which the effect is half-maximal.

In assay [1] the target is T1, Mouse GUCY2C ECD (his-tagged mouse GUCY2C protein extracellular domain fusion protein) (mouse, UniProt Q3UWA6 20-433).
T1 construct: also called murine GUCY2C-his; murine GUCY2C-His
T1 sequence: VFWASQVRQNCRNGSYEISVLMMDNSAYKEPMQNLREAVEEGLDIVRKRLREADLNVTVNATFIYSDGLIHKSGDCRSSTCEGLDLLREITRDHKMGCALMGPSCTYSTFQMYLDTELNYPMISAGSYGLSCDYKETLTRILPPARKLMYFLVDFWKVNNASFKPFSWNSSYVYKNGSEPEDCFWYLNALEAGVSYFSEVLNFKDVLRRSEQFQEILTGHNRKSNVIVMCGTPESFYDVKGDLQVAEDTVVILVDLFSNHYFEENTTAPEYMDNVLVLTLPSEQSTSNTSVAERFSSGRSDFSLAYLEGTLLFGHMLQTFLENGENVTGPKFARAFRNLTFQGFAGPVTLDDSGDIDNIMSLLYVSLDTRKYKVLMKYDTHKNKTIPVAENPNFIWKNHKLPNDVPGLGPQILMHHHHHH
Put plainly: ELISA, plate coated with mouse GUCY2C-his, OD450. The method, then:
A human GUCY2C-his protein was diluted with PBS to a final concentration of 2 μg/mL and then added to a 96-well ELISA plate at 50 μL/well. The plate was sealed with a plastic film and incubated at 4° C. overnight. The next day, the plate was washed 2 times with PBST, and a blocking buffer [PBS+2% (w/w) BSA] was added for blocking at room temperature for 2 h. The blocking buffer was discarded, and the recombinant antibody and positive and negative control antibody with a starting concentration of 100 nM serially diluted by 3 folds were added at 50 μL/well. After incubation at 37° C. for 1 h, the plate was washed 3 times with PBST. A horseradish peroxidase (HRP)—labeled secondary antibody (purchased from Merck, Cat. No. AP113P) was added for incubation at 37° C. for 1 h, and the plate was washed 5 times with PBST. A TMB substrate was added at 50 μL/well for incubation at room temperature for 10 min, and then a stop solution (1.0 M HCl) was added at 50 μL/well. The OD450 nm values were read by an ELISA plate reader (Multimode Plate Reader, EnSight, purchased from Perkin Elmer).
The monkey GUCY2C-his and murine GUCY2C-his proteins were subjected to ELISA and data analysis according to the method described in Example 4.2. The recombinant antibodies Lab306-huFc, Lab322-huFc, and Lab323-huFc have a relatively good binding activity with the monkey GUCY2C-his protein. […]

In assay [2] the target is T2, Cyno GUCY2C ECD (his-tagged cynomolgus monkey GUCY2C protein extracellular domain fusion protein) (cynomolgus monkey, UniProt P25092 24-430 (human entry)).
T2 construct: also called monkey GUCY2C-his; monkey GUCY2C-His
T2 chain: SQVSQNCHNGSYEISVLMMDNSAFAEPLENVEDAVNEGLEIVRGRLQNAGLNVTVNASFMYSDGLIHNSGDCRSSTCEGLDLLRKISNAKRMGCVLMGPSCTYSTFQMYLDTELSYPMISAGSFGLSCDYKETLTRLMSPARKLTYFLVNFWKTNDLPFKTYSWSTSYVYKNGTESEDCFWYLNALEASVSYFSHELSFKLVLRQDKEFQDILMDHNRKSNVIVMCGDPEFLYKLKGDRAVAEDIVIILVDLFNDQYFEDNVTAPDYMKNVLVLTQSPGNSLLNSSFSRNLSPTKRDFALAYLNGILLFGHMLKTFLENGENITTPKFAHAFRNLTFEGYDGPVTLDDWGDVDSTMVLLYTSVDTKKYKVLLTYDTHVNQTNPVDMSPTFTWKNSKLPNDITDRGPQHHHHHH
Kind of assay: ELISA, plate coated with monkey GUCY2C-his, OD450. Background: ELISA stands for enzyme-linked immunosorbent assay.

The target in assay [3] is T3, Human GUCY2C ECD (his-tagged human GUCY2C protein extracellular domain fusion protein) (human, UniProt P25092 24-430).
T3 construct: also called human GUCY2C-his; human GUCY2C-His
T3 sequence (P25092 other isoform, or with tags, fused parts or gaps): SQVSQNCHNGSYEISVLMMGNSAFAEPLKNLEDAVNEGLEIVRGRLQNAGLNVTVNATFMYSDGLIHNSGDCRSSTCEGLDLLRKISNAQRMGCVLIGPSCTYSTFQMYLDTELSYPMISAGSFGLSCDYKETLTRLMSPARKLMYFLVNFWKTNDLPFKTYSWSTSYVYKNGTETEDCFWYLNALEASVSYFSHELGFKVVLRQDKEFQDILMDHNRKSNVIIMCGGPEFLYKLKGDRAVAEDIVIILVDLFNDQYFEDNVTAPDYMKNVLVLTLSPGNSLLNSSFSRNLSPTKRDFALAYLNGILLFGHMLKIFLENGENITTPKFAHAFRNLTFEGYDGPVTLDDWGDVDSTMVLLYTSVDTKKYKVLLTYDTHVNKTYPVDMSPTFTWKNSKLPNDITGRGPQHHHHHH
Kind of assay: ELISA, plate coated with human GUCY2C-his, OD450. As to the method: To assay the binding activity of the humanized antibodies to human GUCY2C-his protein, a human GUCY2C-his protein was diluted with PBS to a final concentration of 2 μg/mL and then added to a 96-well ELISA plate at 50 μL/well. The plate was sealed with a plastic film and incubated at 4° C. overnight. The next day, the plate was washed 2 times with PBST, and a blocking buffer [PBS+2% (w/w) BSA] was added for blocking at room temperature for 2 h. The blocking buffer was discarded, and the plate was washed 2 times with PBST. An antibody to be tested or a control antibody diluted in a 1:3 gradient from a starting concentration of 100 nM was added at 50 μL/well. After incubation at 37° C. for 1 h, the plate was washed 3 times with PBST. A horseradish peroxidase (HRP)—labeled secondary antibody (purchased from Merck, Cat. No. AP113P) was added for incubation at 37° C. for 1 h, and the plate was washed 5 times with PBST. A TMB substrate was added at 50 µL/well for incubation at room temperature for 5-10 min, and then a stop solution (1.0 M HCl) was added at 50 μL/well. OD450 nm values were read using an ELISA plate reader (Multimode Plate Reader, EnSight, purchased from Perkin Elmer).

B1: 5F9-hIgG1 (antibody, V domains shown)
VH: QVQLQQWGAGLLKPSETLSLTCAVFGGSFSGYYWSWIRQPPGKGLEWIGEINHRGNTNDNPSLKSRVTISVDTSKNQFALKLSSVTAADTAVYYCARERGYTYGNFDHWGQGTLVTVSS
VL: EIVMTQSPATLSVSPGERATLSCRASQSVSRNLAWYQQKPGQAPRLLIYGASTRATGIPARFSGSGSGTEFTLTIGSLQSEDFAVYYCQQYKTWPRTFGQGTNVEIKR
notes: also called positive control antibody
In the case of B1, the binding result in assay [1] is “no binding (tested: 100 nM)”. Moreover, the “EC50 (read off the curve)” value in assay [2] is roughly 30 pM; in assay [3], roughly 40 pM.

B2: PF1608-hIgG1 (antibody, V domains shown)
VH: EVQLVESGGGLVQPGGSLRLSCAASGFTFSSYWMHWVRQAPGKGLEWIGEIKPSNELTNVHEKFKDRFTISVDKAKNSAYLQMNSLRAEDTAVYYCTRTITTTEGYWFFDVWGQGTLVTVSS
VL: DIQLTQSPSSLSASVGDRVTITCRASESVDYYGSSLLQWYQQKPGKAPKLLIYAASKLASGVPSRFSGSGSGTDFTLTISSLQPEDFATYYCQQTRKAYTFGQGTKLEIKR
notes: also called PF1608-hlgG1; positive control antibody
Turning to B2, the half-maximal effective concentration (EC50 (read off the curve)) in assay [1], in assay [2] and in assay [3] was roughly 50 pM each time.
